Laboratory results taken from patent CN116829596A.

Key:
[1] = target: 人类血浆激肽释放酶 (human plasma kallikrein) (human) (UniProt P03952); assay: SPR, 37 C, pH 6.0
[2] = target: 人类血浆激肽释放酶 (human plasma kallikrein) (human) (UniProt P03952); assay: SPR, 37 C, pH 7.4
丝氨酸穿膜蛋白酶 = assay: cell-based or functional assay
[3] = target: 人类血浆激肽释放酶 (human plasma kallikrein) (human) (UniProt P03952); assay: cell-based or functional assay
凝血酶A (thrombin A) = assay: cell-based or functional assay
[4] = target: 胰蛋白酶、人类胰酶 (trypsin, human pancreas) (human) (UniProt P07477); assay: cell-based or functional assay
[5] = target: 人类血浆激肽释放酶 (human plasma kallikrein) (human) (UniProt P03952); assay: SPR, 37 C, pH 7.4 or pH 6.0
[6] = target: 人类血浆激肽释放酶 (human plasma kallikrein) (human) (UniProt P03952); assay: SPR, 37 C, pH 6 against pH 7.4

Sequence of UniProt P03952 (P03952 20-390 S143N limits assumed, chain 1 of 2): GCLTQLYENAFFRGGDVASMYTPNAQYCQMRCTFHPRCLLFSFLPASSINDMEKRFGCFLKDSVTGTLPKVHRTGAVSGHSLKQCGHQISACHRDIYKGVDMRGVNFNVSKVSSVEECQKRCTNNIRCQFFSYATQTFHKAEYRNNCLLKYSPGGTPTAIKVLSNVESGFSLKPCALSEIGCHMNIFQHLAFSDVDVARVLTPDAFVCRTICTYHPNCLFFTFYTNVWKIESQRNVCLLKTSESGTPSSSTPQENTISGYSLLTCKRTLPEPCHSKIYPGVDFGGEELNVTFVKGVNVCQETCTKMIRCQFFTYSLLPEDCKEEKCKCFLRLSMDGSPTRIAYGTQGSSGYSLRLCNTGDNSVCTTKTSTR
Sequence of UniProt P03952 (P03952 391-638 limits assumed, chain 2 of 2): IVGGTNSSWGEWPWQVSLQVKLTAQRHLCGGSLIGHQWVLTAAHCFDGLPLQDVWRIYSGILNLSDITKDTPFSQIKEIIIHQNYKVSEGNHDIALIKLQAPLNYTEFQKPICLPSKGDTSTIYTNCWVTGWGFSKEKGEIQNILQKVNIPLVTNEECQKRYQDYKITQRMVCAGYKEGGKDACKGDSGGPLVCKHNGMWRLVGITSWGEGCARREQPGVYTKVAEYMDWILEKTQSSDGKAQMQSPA

- Kd [1]: 236 nM
- Kd [2]: 18 nM
- 丝氨酸蛋白酶抑制分析，IC50 (丝氨酸穿膜蛋白酶): > 1000 nM
- IC90，HMWK功能分析 [3]: 300 nM
- 丝氨酸蛋白酶抑制分析，IC50 (凝血酶A (thrombin A)): > 1000 nM
- 胰蛋白酶抑制分析，IC50 [4]: 243 to 376 nM
- fold affinity for plasma kallikrein over prekallikrein [5]: > 1000 倍
- fold change of KD between pH 6 and pH 7.4 [6]: > 10 倍
Substance: DX-2930 (antibody)
